This note sets out measurements from publication PMC12420816 (Nature Communications, 2025).

The target of this assay is SARS-CoV-2 nsp16 with uncleaved His6-tag (SARS-CoV-2) (UniProt P0DTD1). Briefly: native MS.

The substance “MERS-CoV nsp7-11 polyprotein, tag-free with authentic termini (domain or fragment)” registered a percent of signal as complex of less than 5%.
